Results taken from patent US20200317768A1 (published 2020).
Positions count from the first letter of the chain named.

T1: cynomolgus monkey FcγRIIa1 extracellular domain, C-terminal His-tag (cynomolgus monkey)
T1 construct: also called cyno FcγRIIa1; cynoFcgRIIa1; not shown: His-tag added to C-terminus
T1 chain: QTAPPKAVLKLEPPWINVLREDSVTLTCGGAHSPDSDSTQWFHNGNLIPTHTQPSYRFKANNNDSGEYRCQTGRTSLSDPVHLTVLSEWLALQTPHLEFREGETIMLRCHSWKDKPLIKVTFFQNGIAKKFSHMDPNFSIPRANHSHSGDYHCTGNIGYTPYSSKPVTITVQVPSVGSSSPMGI

T2: cynomolgus monkey FcγRIIa3 extracellular domain, C-terminal His-tag (cynomolgus monkey)
T2 construct: also called cyno FcγRIIa3; cynoFcgRIIa3; not shown: His-tag added to C-terminus
T2 chain: T1 chain with P95T, T121A, A128S, H133P, D135N

T3: human FcγRIIaH extracellular domain, C-terminal His-tag (human, UniProt P12318 34-217)
T3 construct: also called human FcγRIIa (type H); FcgRIIaH; not shown: His-tag added to C-terminus
T3 sequence: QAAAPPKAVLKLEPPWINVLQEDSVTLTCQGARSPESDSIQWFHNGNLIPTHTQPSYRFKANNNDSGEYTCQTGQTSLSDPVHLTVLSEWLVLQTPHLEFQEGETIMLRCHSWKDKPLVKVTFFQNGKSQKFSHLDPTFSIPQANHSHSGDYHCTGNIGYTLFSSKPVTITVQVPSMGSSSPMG

T4: cynomolgus monkey FcγRIIb extracellular domain, C-terminal His-tag (cynomolgus monkey)
T4 construct: also called cyno FcγRIIb; cynoFcγRIIb; not shown: His-tag added to C-terminus
T4 chain: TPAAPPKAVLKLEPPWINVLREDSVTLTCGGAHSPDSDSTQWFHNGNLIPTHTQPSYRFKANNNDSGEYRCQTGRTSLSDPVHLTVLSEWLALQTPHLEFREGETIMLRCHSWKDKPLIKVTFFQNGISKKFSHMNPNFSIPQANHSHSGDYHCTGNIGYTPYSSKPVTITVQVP

T5: cynomolgus monkey FcγRIIa2 extracellular domain, C-terminal His-tag (cynomolgus monkey)
T5 construct: also called cyno FcγRIIa2; cynoFcgRIIa2; not shown: His-tag added to C-terminus
T5 chain: T1 chain with P95T, T121A, I127K, A128S, K130N, D135N, R142Q

T6: human FcγRIIb extracellular domain, C-terminal His-tag (human, UniProt P31994 43-217)
T6 construct: also called FcgRIIb (human); not shown: His-tag added to C-terminus
T6 sequence: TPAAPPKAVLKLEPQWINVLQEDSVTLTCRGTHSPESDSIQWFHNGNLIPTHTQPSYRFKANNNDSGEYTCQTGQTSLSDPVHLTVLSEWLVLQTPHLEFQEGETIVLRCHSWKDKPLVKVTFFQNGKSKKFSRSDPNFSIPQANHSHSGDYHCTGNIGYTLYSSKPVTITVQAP

T7: human FcγRIIaR extracellular domain, C-terminal His-tag (human, UniProt P12318 34-217)
T7 construct: also called human FcγRIIa (type R); FcgRIIaR; not shown: His-tag added to C-terminus
T7 chain: T3 sequence with H134R

B1: M103205H795-MY209/M103202L889-SK1 (antibody, human IgG1, kappa)
heavy: QVTLKESGPVLVKPTETLTLTCTVSGIDLSHDDISWVRQAPGKGLEWVGIISYAGSTYYASWAKGRLTISKDTSKNQVVLTMTNMDPVDTATYYCARGVPAYSHGGDLWGQGTLVTVSSASTKGPSVFPLAPSSKSTSGGTAALGCLVKDYFPEPVTVSWNSGALTSGVHTFPAVLQSSGLYSLSSVVTVPSSSLGTQTYICNVNHKPSNTKVDKKVEPKSCDKTHTCPPCPAPELLNGPSVFLFPPKPKDTLMISRTPEVTCVVVDVSDEDPEVKFNWYVDGVEVHNAKTKPREELYNSTYRVVSVLTVLHQDWLNGKEYKCKVSNTALPKPIEKTISKAKGQPREPQVYTLPPSREEMTKNQVSLTCLVKGFYPSDIAVEWESNGQPENNYKTTPPVLDSDGSFFLYSKLTVDKSRWQQGNVFSCSVMHEALHNHYTQKSLSLSP
light: DIVMTQSPATLSLSPGERATLSCTSSQSVYHANWLSWFQQKPGQPPKLLIYWASTLAYGVPSRFSGSGSGTDFTLTISSLQPEDAATYYCAGGYGGGRYAFGQGTKVEIKRTVAAPSVFIFPPSDEQLKSGTASVVCLLNNFYPREAKVQWKVDNALQSGNSQESVTEQDSKDSTYSLSSTLTLSKADYEKHKVYACEVTHQGLSSPVTKSFNRGEC
B2: M103205H795-MY270/M103202L889-SK1 (antibody, human IgG1, kappa)
heavy: B1 heavy with N238H, L297Q, T328K, P398K
light: B1 light
B3: M103205H795-MY269/M103202L889-SK1 (antibody, human IgG1, kappa)
heavy: B1 heavy with N238M, L297Q, T328K, P398K
light: B1 light
B4: M103205H795-MY219/M103202L889-SK1 (antibody, human IgG1, kappa)
heavy: B1 heavy with N238G, G239Y, L297Q, T328K
light: B1 light
B5: M103205H795-MY229/M103202L889-SK1 (antibody, human IgG1, kappa)
heavy: B1 heavy with N238G, G239Y, T328K, P398K
light: B1 light
B6: M103205H795-MY213/M103202L889-SK1 (antibody, human IgG1, kappa)
heavy: B1 heavy with L297Q, T328K, P398K
light: B1 light
B7: M103205H795-MY227/M103202L889-SK1 (antibody, human IgG1, kappa)
heavy: B1 heavy with N238G, G239Y, L297Q, T328K, P398K
light: B1 light
B8: M103205H795-MY228/M103202L889-SK1 (antibody, human IgG1, kappa)
heavy: B1 heavy with N238G, G239Y, T328K
light: B1 light
B9: M103205H795-MY242/M103202L889-SK1 (antibody, human IgG1, kappa)
heavy: B1 heavy with N238G, P240I, L297Q, T328K, P398K
light: B1 light

What was measured:
Assay in all cases: SPR (Biacore), KD of SG1 / KD of variant;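 further: relative to parent M103205H795-SG1 carrying the SG1 human heavy chain constant region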
[1] = target: T1, cynomolgus monkey FcγRIIa1 …
Protocol: (§1) The kinetic analysis of interactions between these antibodies and FcγR was carried out using BIACORE® T200 or BIACORE® 4000 (GE Healthcare). HBS-EP+ (GE Healthcare) was used as the running buffer, and the measurement temperature was set to 25° C. A chip produced by immobilizing Protein A. Protein A/G or mouse anti-human IgG kappa light chain (BD Biosciences) onto a Series S Sensor Chip CM4 or CM5 (GE Healthcare) by the amine-coupling method was used. […] After the measurement, the antibody captured on the chip was washed off by allowing reaction with 10 mM glycine-HCl, pH1.5 and 25 mM NaOH so that the chip was regenerated and used repeatedly. The sensorgrams obtained as measurement results were analyzed by the 1:1 Langmuir binding model using the BIACORE® Evaluation Software to calculate the binding rate constant ka (L/mol/s) and dissociation rate constant kd (l/s), and the dissociation constant KD (mol/L) was calculated from these values. […] Regarding such interactions, KD values were calculated using the following 1:1 binding model described in BIACORE® T100 Software Handbook BR1006-48 Edition AE.
(§2) The behavior of interacting molecules according to the 1:1 binding model on BIACORE® can be described by Equation 1: Req=C·R max/(KD+C)+RI, wherein, Req is a plot of steady-state binding levels to analyte concentration. C is concentration, RI is bulk refractive index contribution in the sample, and Rmax is analyte binding capacity of the surface. When this equation is rearranged, KD can be expressed as Equation 2: KD=C·Rmax/(Req−RI)−C. KD can be calculated by substituting the values of Rmax, RI, and C into Equation 1 or Equation 2. From the current measurement conditions, RI=0, C=2 μmol/L can be used.

[2] = target: T2, cynomolgus monkey FcγRIIa3 …
Protocol: as §1, §2

[3] = target: T3, human FcγRIIaH extracellular domain, …
Protocol: as §1, §2

[4] = target: T4, cynomolgus monkey FcγRIIb extracellular …
Protocol: as §1, §2

[5] = target: T5, cynomolgus monkey FcγRIIa2 …
Protocol: as §1, §2

[6] = target: T6, human FcγRIIb extracellular domain, …
Protocol: as §1, §2

[7] = target: T7, human FcγRIIaR extracellular domain, …
Protocol: as §1, §2

[8] = target: T8, human FcγRIIIaV extracellular domain, C-terminal His-tag (human, UniProt P08637 17-208)
T8 construct: also called FcgRIIIaV; not shown: His-tag added to C-terminus
Protocol: as §1, §2

T8 sequence (P08637 17-208 F176V): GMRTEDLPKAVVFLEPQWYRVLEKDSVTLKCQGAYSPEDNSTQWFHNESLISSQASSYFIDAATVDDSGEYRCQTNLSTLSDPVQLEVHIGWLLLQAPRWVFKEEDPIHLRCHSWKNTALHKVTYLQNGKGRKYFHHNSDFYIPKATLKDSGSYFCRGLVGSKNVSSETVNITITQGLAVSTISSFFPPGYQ

KD fold (SG1 = 1) [1] [fold] | KD fold (SG1 = 1) [2] [fold] | KD fold (SG1 = 1) [3] [fold] | KD fold (SG1 = 1) [4] [fold] | KD fold (SG1 = 1) [5] [fold] | KD fold (SG1 = 1) [6] [fold] | KD fold (SG1 = 1) [7] [fold] | KD fold (SG1 = 1) [8] [fold] | Binder
5.1 | 8.9 | 1.2 | 9.5 | 7.4 | 9.2 | 1.3 | 0.06 | B1
1.8 | 6.5 | 9.5 | 3.4 | 2.4 | 1.3 | 3.1 | 0.22 | B2
1.4 | 2.7 | 2.3 | 2.8 | 2 | 2.2 | 1.5 | 0.74 | B3
0.5 | 3.1 | 0.2 | 1.4 | 1.3 | 13.5 | 6.9 | 0.03 | B4
2 | 8.5 | 0.7 | 3.8 | 2.3 | 30.7 | 13 | 0.02 | B5
6 | 13.1 | 2 | 11.9 | 9.6 | 12.8 | 1.6 | 0.03 | B6
1.7 | 6.3 | 0.5 | 3.5 | 2 | 35.4 | 17.7 | 0.04 | B7
1.1 | 4.7 | 0.3 | 1.6 | 1 | 15.3 | 6.5 | 0.02 | B8
0.7 | 2.9 | 0.8 | 1.6 | 1.2 | 2.4 | 1.7 | 0.25 | B9
